{"source": "patent US9663815B2", "about": "“Cytosolically-active peroxidases as reporters for microscopy” (Massachusetts Institute of Technology, priority 2011, dated 2017)", "molecules": {"B1": {"name": "mAPX-NES: Flag-mAPX with C-terminal nuclear export signal, cytosolic expression (protein, UniProt P48534 2-250, looked up, variant K14D E112K)", "L-ascorbate peroxidase, …": "GKSYPTVSPDYQDAIEKAKRKLRGFIAEKKCAPLILRLAWHSAGTFDSKTKTGGPFGTIKHQAELAHGANNGLDIAVRLLEPIKEQFPIVSYADFYQLAGVVAVEITGGPKVPFHPGREDKPEPPPEGRLPDATKGSDHLRDVFGKAMGLSDQDIVALSGGHTIGAAHKERSGFEGPWTSNPLIFDNSYFTELLTGEKDGLLQLPSDKALLTDSVFRPLVEKYAADEDVFFADYAEAHLKLSELGFAEA", "modifications": "N-terminal Flag tag; C-terminal nuclear export signal", "notes": "Flag-mAPX with C-terminal nuclear export signal, cytosolic expression"}, "B2": {"name": "mAPX−FFAF: sextuple mutant K14D, E112K, W41F, D133A, T135F, K136F of pea APX (protein, UniProt P48534 2-250, looked up, variant K14D E112K W41F D133A T135F K136F)", "L-ascorbate peroxidase, …": "GKSYPTVSPDYQDAIEKAKRKLRGFIAEKKCAPLILRLAFHSAGTFDSKTKTGGPFGTIKHQAELAHGANNGLDIAVRLLEPIKEQFPIVSYADFYQLAGVVAVEITGGPKVPFHPGREDKPEPPPEGRLPAAFFGSDHLRDVFGKAMGLSDQDIVALSGGHTIGAAHKERSGFEGPWTSNPLIFDNSYFTELLTGEKDGLLQLPSDKALLTDSVFRPLVEKYAADEDVFFADYAEAHLKLSELGFAEA"}, "B3": {"name": "W41F/G69F/D133A/T135F/K136F: quintuple, most HRP-like active-site mutant of pea APX (protein, UniProt P48534 2-250, looked up, variant W41F G69F D133A T135F K136F)", "L-ascorbate peroxidase, …": "GKSYPTVSPDYQKAIEKAKRKLRGFIAEKKCAPLILRLAFHSAGTFDSKTKTGGPFGTIKHQAELAHFANNGLDIAVRLLEPIKEQFPIVSYADFYQLAGVVAVEITGGPEVPFHPGREDKPEPPPEGRLPAAFFGSDHLRDVFGKAMGLSDQDIVALSGGHTIGAAHKERSGFEGPWTSNPLIFDNSYFTELLTGEKDGLLQLPSDKALLTDSVFRPLVEKYAADEDVFFADYAEAHLKLSELGFAEA"}, "B4": {"name": "APEX: triple mutant K14D/W41F/E112K of pea APX, Enhanced APX reporter (protein, listed as Pisum sativum)", "chain": "MGKSYPTVSPDYQDAIEKAKRKLRGFIAEKKCAPLILRLAFHSAGTFDSKTKTGGPFGTIKHQAELAHGANNGLDIAVRLLEPIKEQFPIVSYADFYQLAGVVAVEITGGPKVPFHPGREDKPEPPPEGRLPDATKGSDHLRDVFGKAMGLSDQDIVALSGGHTIGAAHKERSGFEGPWTSNPLIFDNSYFTELLTGEKDGLLQLPSDKALLTDSVFRPLVEKYAADEDVFFADYAEAHLKLSELGFAEA"}}, "key": {"HEK cells": {"tested_on": "HEK cells", "assay": "DAB staining of transfected cells (brightfield)", "type": "cell-based", "description": "Next, the activity of wt APX and mAPX was compared in mammalian cells.\n(§1) To generate a monomeric APX with improved activity, the two mAPX mutations (K14D/E112K) were added to each of the activity-enhanced mutants. […] The sextuple mutant (K14D, E112K, W41F, D133A, T135F, K136F=mAPX−FFAF), was compared to mAPX+W41F within cells. HEK cells were transfected with constructs targeted to the mitochondrial matrix (Table 3), while COS-7 cells were transfected with constructs fused to the C-terminus of connexin 43 (Table 3). After fixation, the cells were treated with DAB and H2O2 to generate DAB polymer. […] After fixation, cells were stained with anti-Flag (for matrix) or anti-myc (for connexin) antibody to visualize peroxidase expression levels. […] Therefore mAPX+W41F (K14D/E112K/W41F) was selected, denoted as “APEX” (for Enhanced APX), as the optimized reporter for subsequent experiments.\nA solution of 4% formaldehyde (freshly depolymerized from paraformaldehyde) with 2% glutaraldehyde in 10 mM phosphate buffered saline (PBS) was added to cells 24 hours after transfection. Cells were treated for 3 min at room temperature, then 30 min on ice. Cells were then washed 5×2 min using ice cold 10 mM PBS. Cells were blocked with 20 mM glycine for 5 min on ice. Cells were then washed 5×2 min with ice-cold 10 mM PBS. Cells were then treated with an ice-cold solution of DAB (0.5 mg/mL) and H2O2 (0.03%) in 10 mM PBS for 20 min. Cells were then washed 5×2 min with ice-cold 10 mM PBS. Cells were treated with 2% OsO4 in ice-cold 10 mM PBS for 30 min, then washed 5×2 min with ice-cold distilled deionized water. Cells were then placed under ice-cold 2% aqueous uranyl acetate for 24 hours.\n(§2) Any cell displaying detectable GFP fluorescence was considered transfected. Contact sites between neighboring transfected cells were identified using DIC imaging. Gap junctions were identified as lines of GFP fluorescence unambiguously overlaying with the plasma membrane of two transfected cells based on DIC. DAB stain intensity for APX-NES variants was analyzed using SlideBook. Transfected cells were identified by nuclear YFP fluorescence. In each transfected cell, a representative DAB-stained region was encircled, and its average brightfield intensity was calculated. Background intensity, determined for each field of view by encircling a representative region in the cytosol of an untransfected cell, was subtracted out. The bar graph in FIG. 2c represents mean data from >60 transfected cells."}, "connexin43 (Cx43)": {"tested_on": "connexin43 (Cx43)", "assay": "Connexin43 fusion localization to gap junctions", "type": "cell-based, rat", "conditions": "for localization of connexin43 fusion / gap junction formation: fused to connexin43", "description": "Both mAPX and wt APX were fused to connexin43 (Cx43), a protein that is sensitive to oligomeric tags (FIG. 4d) (McKinney, et. al., Nat Meth 6, 131-133 (2009); Lauf, et. al., FEBS letters 498, 11-15 (2001)).\nas §1, §2"}, "[1]": {"assay": "Guaiacol activity assay (Michaelis-Menten kinetics)", "type": "biochemical", "conditions": "guaiacol as substrate, purified enzyme", "description": "Data points represent the mean±standard deviation of 2-3 independent measurements. Initial rates are shown as a function of guaiacol concentration. H2O2 concentration was 90 μM, and enzyme concentration was 20 nM in all trials. Oxidation to tetraguaiacol was monitored by absorbance at 470 nm (ε470=22×10^3 M^−1 cm^−1)^2.\nHigh activity toward guaiacol generally correlated well with robust polymerization of DAB in vitro. Guaiacol assays were performed on a Nanodrop 2000c UV-vis spectrophotometer (Thermo Scientific) using its cuvette reader. HRP (Sigma) was prepared as a 10 μM stock in PBS, flash frozen and stored at −80° C., and thawed immediately before use. Guaiacol peroxidase activity was measured according to the protocol of Lad et. al.^35 Oxidation to tetraguaiacol was monitored by absorbance at 470 nm (ε470=22×10^3 M^−1 cm^−1). Kcat and KM were calculated by nonlinear regression fitting to the Michaelis-Menten equation using OriginPro (OriginLab Corporation). All values are reported as the mean±standard deviation for 2-3 independent Michaelis-Menten fittings, with each fitting using at least 5 values of substrate concentration ranging between 0.25 and 30 mM.\nIn order to improve the performance of mAPX in mammalian cells, monomeric APX was engineered with improved activity toward DAB in the hope that faster kinetics could compensate for diminished heme binding. The substrate binding site of APX was compared to that of HRP, which has faster kinetics and broader aromatic substrate tolerance (Henriksen, et. al., Journal of Biological Chemistry 274, 35005-35011 (1999)). In order to make APX more HRP-like, seven mutants of APX were designed that incorporated mostly aromatic residues into the active site (FIG. 5a). A colorimetric assay was employed using guaiacol, a prototypical aromatic peroxidase substrate, to determine Michaelis-Menten parameters (Kumar, et. al., Journal of Cell Science 108, 3725-3734 (1995); Henriksen, et. al., Journal of Biological Chemistry 274, 35005-35011 (1999)) (FIG. 5b and FIG. 10). […]"}, "[2]": {"assay": "Gel filtration chromatography, oligomerization state", "type": "physicochemical", "conditions": "PBS pH 7.4", "description": "APX, fluorescent protein, or miniSOG preparations were diluted to the desired concentrations using chilled (4° C.) PBS and then allowed to incubate at room temperature for 30 min to overnight. Samples (100 μL) were run on a Waters HPLC system over a Superdex 75 10/300 column (GE Healthcare) that had been pre-equilibrated in PBS, pH 7.4. Samples were run isocratically in PBS at a flow rate of 0.5 mL/min. Elution of APX was monitored at 280 nm and 405 nm (heme absorbance). Empower software (Waters) was used for analysis of elution profiles. Apparent MWs were determined against low molecular weight standards (GE). […] The apparent MW of the monomer for wt APX was assumed to be equal to the apparent MW of mAPX at 0.25 μM.\nTo investigate whether this localization is an artifact of APEX dimerization at high concentrations, the experiment was repeated using a tandem dimer of APX^W41F (two APX^W41F proteins linked with a short amino acid chain, denoted tdAPX) as well as miniSOG in place of APEX. Additionally, gel filtration chromatography (GFC) was used to assess the relative abundance of oligomers that formed at increasing tdAPX concentrations in vitro (5 μM, 20 μM, and 47 μM). Three different linker lengths (18, 23, and 28 amino acids) were tested. His6-tagged proteins were expressed and purified from E. coli. All three variants gave a major peak with an apparent molecular weight (MW) of ˜56 kDa, as expected for tdAPX. The apparent MW of the major peak remained constant as a function of concentration for all three constructs. […] Therefore, the 28 amino acid linker variant was selected as the optimized tandem dimer to be used in EM experiments."}, "[3]": {"tested_on": "MCU (mitochondrial calcium uniporter)", "assay": "Functional assay for Ca2+ uptake of MCU fusions", "type": "cell-based, human", "conditions": "fusion to MCU, versus Flag-tagged MCU; data not shown"}, "COS-7 cells": {"tested_on": "COS-7 cells", "assay": "EM imaging after DAB/OsO4 staining", "type": "cell-based", "description": "Transfected cells cultured on poly-d-lysine coated glass bottom dishes (P35GC-0-14-C, MatTek Corp.) were fixed using room temperature 2% glutaraldehyde (Electron Microscopy Sciences) in 100 mM sodium cacodylate buffer with 2 mM CaCl2, pH 7.4, then quickly moved to ice. Cells were kept between 0 and 4° C. for all subsequent steps until resin infiltration. After 30-60 min, cells were rinsed 5×2 min in chilled buffer, then treated for 5 min in buffer containing 20 mM glycine to quench unreacted glutaraldehyde, followed by 5×2 min rinses in chilled buffer. A freshly-diluted solution of 0.5 mg/mL 3,3′-diaminobenzidine (DAB) tetrahydrochloride or the DAB free base (Sigma) dissolved in HCl were combined with 0.03% (v/v) H2O2 in chilled buffer, and the solution was added to cells for 1 to 15 min, depending on the sample. The reaction product generation could be monitored by transmitted LM. To halt the reaction, the DAB solution was removed, and cells were rinsed 5×2 min with chilled buffer. For correlated LM-EM imaging of connexin43-GFP-APEX, the procedure was the same except cells were immersed in 2% glutaraldehyde for ˜16 h, and regions of interest were identified by GFP fluorescence prior to treatment with DAB. After the DAB reaction was halted, cells were post-fixed for 30 min using 2% osmium tetroxide (Electron Microscopy Sciences) in chilled buffer. Cells were rinsed 5×2 min in chilled distilled water, then placed in chilled 2% aqueous uranyl acetate (Electron Microscopy Sciences) overnight. […]\nDAB-stained areas of embedded cultured cells were identified by transmitted light and the areas of interest were sawed out using a jeweler's saw and mounted on dummy acrylic blocks with cyanoacrylic adhesive. […] Electron micrographs recorded using a JEOL 1200 TEM operating at 80 keV."}}, "data": [{"molecule": "B1", "values": [{"measurement": "activity after culturing the cells with heme", "setting": "HEK cells; cytosol (NES), heme added after transfection", "result": "significantly boosted"}]}, {"molecule": "B2", "values": [{"measurement": "localization of connexin43 fusion / gap junction formation", "setting": "connexin43 (Cx43)", "result": "formed very few gap junctions"}]}, {"molecule": "B3", "values": [{"measurement": "activity in vitro (guaiacol)", "setting": "[1]", "result": "most active"}]}, {"molecule": "B4", "values": [{"measurement": "oligomerization state", "setting": "[2]", "result": "equally monomeric to mAPX"}, {"measurement": "Ca2+ uptake of MCU fusion", "setting": "[3]", "result": "performed comparably to MCU appended to a small Flag epitope tag"}, {"measurement": "DAB staining activity in mitochondrial matrix", "setting": "HEK cells; mitochondrial matrix-targeted constructs, HEK cells", "result": "much stronger DAB stain"}, {"measurement": "EM contrast / DAB staining, ER lumen", "setting": "COS-7 cells; KDEL-targeted, COS-7", "result": "dense DAB staining throughout the ER tubular network"}, {"measurement": "EM contrast / DAB staining, mitochondrial matrix", "setting": "COS-7 cells; Mito matrix-APEX, COS-7", "result": "strong contrast and well-defined cristae structures"}, {"measurement": "activity in the intermembrane space (IMS)", "setting": "COS-7 cells; separate controls", "result": "highly active"}, {"measurement": "DAB stain of connexin fusion", "setting": "connexin43 (Cx43); COS-7 cells, fused to C-terminus of connexin 43", "result": "strong DAB stain"}, {"measurement": "localization of connexin43 fusion / gap junction formation", "setting": "connexin43 (Cx43)", "result": "behaves well as a fusion to Cx43"}, {"measurement": "localization of connexin43 fusion / gap junction formation", "setting": "connexin43 (Cx43); listed as mAPX+W41F", "result": "incorporated well into gap junctions"}]}]}
